Results published in paper PMC4882005, “Functional Cooperativity between ABCG4 and ABCG1 Isoforms” (PLoS ONE, 2016).

Molecular target: GFP-ABCG4 (UniProt Q9H172-1 1-646)
Assay: co-IP; HEK293 co-transfected with the GFP-tagged and the untagged protein (untagged in excess), lysed 24 h after transfection in 50 mM Tris pH 7.4, 150 mM NaCl, 0.5% NP-40; precipitated with anti-GFP on protein G-sepharose, 2 h at 4°C; Western blot of the precipitate
Conditions: partners not purified

GFP-ABCG4, sequence (Q9H172 whole entry): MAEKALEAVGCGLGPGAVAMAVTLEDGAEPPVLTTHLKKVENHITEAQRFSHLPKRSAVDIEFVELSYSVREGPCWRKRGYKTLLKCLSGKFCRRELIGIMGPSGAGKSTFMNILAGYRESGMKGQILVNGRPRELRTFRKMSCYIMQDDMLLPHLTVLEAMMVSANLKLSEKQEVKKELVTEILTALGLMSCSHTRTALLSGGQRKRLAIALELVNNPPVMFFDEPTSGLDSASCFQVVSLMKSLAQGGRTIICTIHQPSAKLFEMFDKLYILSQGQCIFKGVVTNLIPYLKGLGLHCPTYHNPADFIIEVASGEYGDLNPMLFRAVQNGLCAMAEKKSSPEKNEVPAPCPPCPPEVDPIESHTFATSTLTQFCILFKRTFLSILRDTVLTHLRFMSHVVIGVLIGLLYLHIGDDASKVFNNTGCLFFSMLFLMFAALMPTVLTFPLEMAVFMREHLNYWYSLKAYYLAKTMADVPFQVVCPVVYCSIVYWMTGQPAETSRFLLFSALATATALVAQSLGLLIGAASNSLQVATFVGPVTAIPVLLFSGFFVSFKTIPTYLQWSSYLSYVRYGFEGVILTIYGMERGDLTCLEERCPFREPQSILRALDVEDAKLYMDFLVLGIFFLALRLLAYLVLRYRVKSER

B1: ABCG4 (wild type, untagged) (natural protein)
chain: not shown
notes: the whole cDNA was probably expressed; also called wt ABCG4; source: HEK293, transfected (Fugene HD), in lysate
  stoichiometry N: ~1
